From patent US8357523B2, “Beta-glucosidase variant enzymes and related polynucleotides” (Codexis, Inc., priority 2009, dated 2013)

Assays:
[1] = Enzyme stability: residual activity on pNPG after pre-incubation at high temperature and low pH; assay type: biochemical; details: residual activity on pNPG at pH 7, 30° C.
Method: Residual activity is determined by exposing the enzyme to stress conditions of elevated temperature for a period of time and then determining the β-glucosidase activity. The β-glucosidase activity of the enzyme exposed to stress conditions (“a”) is compared to that of a control in which the enzyme is not exposed to the stress conditions (“b”), and residual activity is equal to the ratio a/b. Exemplary conditions for determining thermostability are provided in Examples 9 and 13. In one embodiment the enzymes are exposed to stress conditions of 50° C. at pH 5.5 or 55° C. at pH 5.0 or 55° C. at pH 5.5, or 65° C. at pH 5.0 for about 1 hour, and assayed at 30° C., pH 7, for about 0.1 hour.
A colorimetric pNPG (p-nitrophenyl-(β-D-glucopyranoside)-based assay was used for measuring β-glucosidase activity. In a total volume of 100 μL, 20 μL clear media supernatant containing β-glucosidase enzyme was added to 4 mM pNPG (Sigma-Aldrich, Inc. St. Louis, Mo.) solution in 50 mM sodium phosphate buffer at pH6.5. The reactions were incubated at pH 6.5, 45° C. for 1 hour. The reaction mixture was quenched with 100 μL of 1M sodium carbonate pH 11 solution. The absorbance of the solution was measured at 405 nm to determine the conversion of pNPG to p-nitrophenol. The release of p-nitrophenol (ε=17,700 M−1 cm−1) was measured at 405 nm to calculate β-glucosidase activity. Detectable β-glucosidase activity was observed under high throughput screening conditions (pH 7, 50° C.).
Four CelA variants and wildtype CelA were characterized to determine their stabilities at high temperature (55° C.) and low pH (pH5.5) using the method of Example 5A. The samples containing various CelA variant enzymes were pre-incubated at pH 5.5, 55° C. for 0-6 hrs. The residual enzyme activity after the thermal challenge was measured using pNPG as substrate at pH 7, 30° C. for 1 hr. […] The mutations listed in the table are indicated relative to SEQ ID NO: 4, the wildtype CelA. These sequences included residues GTS prior to the N-terminus of SEQ ID NO: 4 (prepared as described in Example 1). […]

[2] = Saccharification of microcrystalline cellulose by Trichoderma reesei whole cellulase supplemented with β-glucosidase; assay type: biochemical; details: 1 g/L TRWC alone or 25% of TRWC substituted with the β-glucosidase; 200 g/L Avicel, 100 g/L xylose, pH5.5, 55° C., 48 hours
Text: FIG. 12 illustrates the impact of supplementing a commercially available Trichoderma reesei whole cellulose (“TRWC”) mixture with a CelA variant of the present invention. Compositions containing TRWC were supplemented with β-glucosdiases CelA Variant No. 264 (“Cel var1”), CelA Variant No. 366 (“Cel var2”), and a commercially available Aspergillus niger β-glucosidase (“ANBG”) in a ratio of 3:1 TRWC to β-glucosidase. The effectiveness of each composition at hydrolyzing microcrystalline cellulose was evaluated as described in Example 15. A plot of glucose and cellobiose concentration (g/L) vs. cellulase composition is depicted. The control composition was TRWC with no added β-glucosidase.
The impact of adding a CelA variant of the present invention to commercially available cellulose mixtures and microcrystalline cellulose, Avicel™, was evaluated. In the test reactions, 1 g/L Trichoderma reesei whole cellulose (“TRWC”, Sigma catalog #C85456-10KU (ATCC 26921)) was used to convert 200 g/L of the microcrystalline cellulose Avicel™ (200 mM Sodium acetate; 100 g/L xylose, pH5.5 and 55° C.). The amount of glucose was measured after 48 hours of reaction. As a comparison, 25% of the TRWC was replaced with a β-glucosidase: Variant No. 264 (“Cel var1”), Variant No. 366 (“Cel var2”), or with the commercially available cellobiase, Aspergillus niger beta-glucosidase (“ANBG”, Sigma catalog #49291-1G). […]

cellobiose and glucose combined yielded in saccharification reaction [2]: comparable results
B1: Variant No. 264 (protein)
chain: SAAIAQEGAAPAAMLHPEKWPRPATQRLIDPAVEKRVDALLKQLSVEEKVGQVIQGDIGTITPEDLRKYPLGSILAGGDSGPNGDDRAPPKEWLDLADAFYRVSLEKRPGHTPIPVLFGIDAVHGHGNIGSATIFPHNIALGMTRDPELLRRIGEVTAEEMAATGIDWTFAPALSVVRDDRWGRTYEGFSEDPEIVASYSAAIVEGVQGKYGSKDFMAPGRAVACAKHFLADGGTDQGRDQGDARISEDELIRIHNAGYPPAIDAGVLTVMASFSSWQGIKHHGHKQLLTDVLKGQMGFNGFIVGDWNAHDQVPGCTKFNCPTSLIAGLDMYMAADSWKQLYENTLAQVKDGTIPMARLDDAVRRILRVKVLAGLFEKPAPKDRPGLPGLETLGSPEHRAVGREAVRKSLVLLKNDKGTLPLSPKARVLVAGDGADNIGKQSGGWTISWQGTGNRNDEFPGATSILGGIRDAVADAGGSVEFDVAGQYKTKPDVAIVVFGEEPYAEFRGDVETLEYQPDQKQDLTLLKKLKDQGIPVVAVFLSGRPMWVNPELNASDAFVAAWLPGTEGGGVADVLFTDKAGKVQHDFAGKLSYSWPRTAAQTTVNRGDADYNPLFAYGYGLTYKDKSKVGTLPEESGVPAEARQN
% residual activity after 10 mins @ pH 5.5, 55° C. ([1]; pre-incubation 10 mins at pH 5.5, 55° C., 1 hr): 95%
% residual activity after 1 hour @ pH 5.5, 55° C. ([1]; pre-incubation 1 hour at pH 5.5, 55° C.): 78%
% residual activity after 6 hours @ pH 5.5, 55° C. ([1]; pre-incubation 6 hours at pH 5.5, 55° C., 1 hr): 11%
